# Reference: article PMC5629633
# System: NC(=O)CC[C@H](N)C(=O)O
# Test: purified protein
# Settings: pH 8.0, 30 °C, 11 mM MgCl2, co-substrate ATP
substance,measurement,value
Cj1418 (L-glutamine kinase) (Campylobacter jejuni subsp. jejuni NCTC 11168 = ATCC 700819),Km,640 ± 60 µM
